System: DYT1 patient plasma derived EVs
Test: Plasma-derived EV proteomics (ExoQuick ULTRA, DIA LC/MS/MS), DYT1 vs Healthy Controls
Set-up: species or system human
Settings: Hs. Plasma EVs (DYT1/WT); significance of genotype difference
Method: Data was obtained for extracellular vesicles using previously acquired samples. The ExoQuick® ULTRA EV Isolation System was used to fractionate and enrich EVs from plasma. Isolated plasma EV samples were then submitted to proteomic analysis by the Duke Proteomics and Metabolomics Core Facility (DPMCF). At the DPMCF, quantitative (LC/MS/MS) was performed on 500 ng of each sample, using an EvoSep One UPLC system coupled to a Thermo Orbitrap Astral high-resolution accurate mass tandem mass spectrometer (Thermo). Briefly, the sample was eluted directly from an Evotip which was subjected to a low organic wash and then subjected to an analytical separation using a 1.7 μm EvoSep 150 um ID×15 cm endurance (EveoSep) column running an SPD30 gradient from approximately 5 to 30% acetonitrile with 0.1% formic acid with a column temperature of 50 C. Data collection on the Orbitrap Astral mass spectrometer was performed in a data-independent acquisition (DIA) mode of acquisition with a r=240,000 (@m/z 200) full MS scan from m/z 380-980 with a target AGC value of 4e5 ions. Fixed DIA, windows of 4 m/z from m/z 380 to 980 DIA MS/MS scans were acquired in the Astral with a target AGC value of 5e4 and a max fill time of 6 ms. HCD collision energy setting of 27% was used for all MS2 scans.

Molecule	-LogP
NDNF (protein, UniProt Q8TB73 20-568, looked up) Protein NDNF: QKLPTRDEELFQMQIRDKAFFHDSSVIPDGAEISSYLFRDTPKRYFFVVEEDNTPLSVTVTPCDAPLEWKLSLQELPEDRSGEGSGDLEPLEQQKQQIINEEGTELFSYKGNDVEYFISSSSPSGLYQLDLLSTEKDTHFKVYATTTPESDQPYPELPYDPRVDVTSLGRTTVTLAWKPSPTASLLKQPIQYCVVINKEHNFKSLCAVEAKLSADDAFMMAPKPGLDFSPFDFAHFGFPSDNSGKERSFQAKPSPKLGRHVYSRPKVDIQKICIGNKNIFTVSDLKPDTQYYFDVFVVNINSNMSTAYVGTFARTKEEAKQKTVELKDGKITDVFVKRKGAKFLRFAPVSSHQKVTFFIHSCLDAVQIQVRRDGKLLLSQNVEGIQQFQLRGKPKAKYLVRLKGNKKGASMLKILATTRPTKQSFPSLPEDTRIKAFDKLRTCSSATVAWLGTQERNKFCIYKKEVDDNYNEDQKKREQNQCLGPDIRKKSEKVLCKYFHSQNLQKAVTTETIKGLQPGKSYLLDVYVIGHGGHSVKYQSKVVKTRKFC	1.312
RAP2B (protein, UniProt P61225 1-180, looked up) Ras-related protein Rap-2b: MREYKVVVLGSGGVGKSALTVQFVTGSFIEKYDPTIEDFYRKEIEVDSSPSVLEILDTAGTEQFASMRDLYIKNGQGFILVYSLVNQQSFQDIKPMRDQIIRVKRYERVPMILVGNKVDLEGEREVSYGEGKALAEEWSCPFMETSAKNKASVDELFAEIVRQMNYAAQPNGDEGCCSAC	2.656
LIPG (protein, UniProt Q9Y5X9 21-500, looked up) Endothelial lipase: SPVPFGPEGRLEDKLHKPKATQTEVKPSVRFNLRTSKDPEHEGCYLSVGHSQPLEDCSFNMTAKTFFIIHGWTMSGIFENWLHKLVSALHTREKDANVVVVDWLPLAHQLYTDAVNNTRVVGHSIARMLDWLQEKDDFSLGNVHLIGYSLGAHVAGYAGNFVKGTVGRITGLDPAGPMFEGADIHKRLSPDDADFVDVLHTYTRSFGLSIGIQMPVGHIDIYPNGGDFQPGCGLNDVLGSIAYGTITEVVKCEHERAVHLFVDSLVNQDKPSFAFQCTDSNRFKKGICLSCRKNRCNSIGYNAKKMRNKRNSKMYLKTRAGMPFRVYHYQMKIHVFSYKNMGEIEPTFYVTLYGTNADSQTLPLEIVERIEQNATNTFLVYTEEDLGDLLKIQLTWEGASQSWYNLWKEFRSYLSQPRNPGRELNIRRIRVKSGETQRKLTFCTEDPENTSISPGRELWFRKCRDGWRMKNETSPTVELP	1.303
GART (protein, UniProt P22102 2-1010, looked up) Trifunctional purine …: AARVLIIGSGGREHTLAWKLAQSHHVKQVLVAPGNAGTACSEKISNTAISISDHTALAQFCKEKKIEFVVVGPEAPLAAGIVGNLRSAGVQCFGPTAEAAQLESSKRFAKEFMDRHGIPTAQWKAFTKPEEACSFILSADFPALVVKASGLAAGKGVIVAKSKEEACKAVQEIMQEKAFGAAGETIVIEELLDGEEVSCLCFTDGKTVAPMPPAQDHKRLLEGDGGPNTGGMGAYCPAPQVSNDLLLKIKDTVLQRTVDGMQQEGTPYTGILYAGIMLTKNGPKVLEFNCRFGDPECQVILPLLKSDLYEVIQSTLDGLLCTSLPVWLENHTALTVVMASKGYPGDYTKGVEITGFPEAQALGLEVFHAGTALKNGKVVTHGGRVLAVTAIRENLISALEEAKKGLAAIKFEGAIYRKDVGFRAIAFLQQPRSLTYKESGVDIAAGNMLVKKIQPLAKATSRSGCKVDLGGFAGLFDLKAAGFKDPLLASGTDGVGTKLKIAQLCNKHDTIGQDLVAMCVNDILAQGAEPLFFLDYFSCGKLDLSVTEAVVAGIAKACGKAGCALLGGETAEMPDMYPPGEYDLAGFAVGAMERDQKLPHLERITEGDVVVGIASSGLHSNGFSLVRKIVAKSSLQYSSPAPDGCGDQTLGDLLLTPTRIYSHSLLPVLRSGHVKAFAHITGGGLLENIPRVLPEKLGVDLDAQTWRIPRVFSWLQQEGHLSEEEMARTFNCGVGAVLVVSKEQTEQILRDIQQHKEEAWVIGSVVARAEGSPRVKVKNLIESMQINGSVLKNGSLTNHFSFEKKKARVAVLISGTGSNLQALIDSTREPNSSAQIDIVISNKAAVAGLDKAERAGIPTRVINHKLYKNRVEFDSAIDLVLEEFSIDIVCLAGFMRILSGPFVQKWNGKMLNIHPSLLPSFKGSNAHEQALETGVTVTGCTVHFVAEDVDAGQIILQEAVPVKRGDTVATLSERVKLAEHKIFPAALQLVASGTVQLGENGKICWVKEE	1.317
HNRNPC (protein, UniProt P07910 2-306, looked up) Heterogeneous nuclear …: ASNVTNKTDPRSMNSRVFIGNLNTLVVKKSDVEAIFSKYGKIVGCSVHKGFAFVQYVNERNARAAVAGEDGRMIAGQVLDINLAAEPKVNRGKAGVKRSAAEMYGSVTEHPSPSPLLSSSFDLDYDFQRDYYDRMYSYPARVPPPPPIARAVVPSKRQRVSGNTSRRGKSGFNSKSGQRGSSKSGKLKGDDLQAIKKELTQIKQKVDSLLENLEKIEKEQSKQAVEMKNDKSEEEQSSSSVKKDETNVKMESEGGADDSAEEGDLLDDDDNEDRGDDQLELIKDDEKEAEEGEDDRDSANGEDDS	2.933
WDR26 (protein, UniProt Q9H7D7 1-661, looked up) WD repeat-containing protein …: MQANGAGGGGGGGGGGGGGGGGGGGQGQTPELACLSAQNGESSPSSSSSAGDLAHANGLLPSAPSAASNNSNSLNVNNGVPGGAAAASSATVAAASATTAASSSLATPELGSSLKKKKRLSQSDEDVIRLIGQHLNGLGLNQTVDLLMQESGCRLEHPSATKFRNHVMEGDWDKAENDLNELKPLVHSPHAIVVRGALEISQTLLGIIVRMKFLLLQQKYLEYLEDGKVLEALQVLRCELTPLKYNTERIHVLSGYLMCSHAEDLRAKAEWEGKGTASRSKLLDKLQTYLPPSVMLPPRRLQTLLRQAVELQRDRCLYHNTKLDNNLDSVSLLIDHVCSRRQFPCYTQQILTEHCNEVWFCKFSNDGTKLATGSKDTTVIIWQVDPDTHLLKLLKTLEGHAYGVSYIAWSPDDNYLVACGPDDCSELWLWNVQTGELRTKMSQSHEDSLTSVAWNPDGKRFVTGGQRGQFYQCDLDGNLLDSWEGVRVQCLWCLSDGKTVLASDTHQRIRGYNFEDLTDRNIVQEDHPIMSFTISKNGRLALLNVATQGVHLWDLQDRVLVRKYQGVTQGFYTIHSCFGGHNEDFIASGSEDHKVYIWHKRSELPIAELTGHTRTVNCVSWNPQIPSMMASASDDGTVRIWGPAPFIDHQNIEEECSSMDS	1.772
AP1B1 (protein, UniProt Q10567 1-949, looked up) AP-1 complex subunit beta-1: MTDSKYFTTTKKGEIFELKAELNSDKKEKKKEAVKKVIASMTVGKDVSALFPDVVNCMQTDNLELKKLVYLYLMNYAKSQPDMAIMAVNTFVKDCEDPNPLIRALAVRTMGCIRVDKITEYLCEPLRKCLKDEDPYVRKTAAVCVAKLHDINAQLVEDQGFLDTLKDLISDSNPMVVANAVAALSEIAESHPSSNLLDLNPQSINKLLTALNECTEWGQIFILDCLANYMPKDDREAQSICERVTPRLSHANSAVVLSAVKVLMKFMEMLSKDLDYYGTLLKKLAPPLVTLLSAEPELQYVALRNINLIVQKRPEILKHEMKVFFVKYNDPIYVKLEKLDIMIRLASQANIAQVLAELKEYATEVDVDFVRKAVRAIGRCAIKVEQSAERCVSTLLDLIQTKVNYVVQEAIVVIKDIFRKYPNKYESVIATLCENLDSLDEPEARAAMIWIVGEYAERIDNADELLESFLEGFHDESTQVQLQLLTAIVKLFLKKPTETQELVQQVLSLATQDSDNPDLRDRGYIYWRLLSTDPVAAKEVVLAEKPLISEETDLIEPTLLDELICYIGTLASVYHKPPSAFVEGGRGVVHKSLPPRTASSESAESPETAPTGAPPGEQPDVIPAQGDLLGDLLNLDLGPPVSGPPLATSSVQMGAVDLLGGGLDSLMGDEPEGIGGTNFVAPPTAAVPANLGAPIGSGLSDLFDLTSGVGTLSGSYVAPKAVWLPAMKAKGLEISGTFTRQVGSISMDLQLTNKALQVMTDFAIQFNRNSFGLAPAAPLQVHAPLSPNQTVEISLPLSTVGSVMKMEPLNNLQVAVKNNIDVFYFSTLYPLHILFVEDGKMDRQMFLATWKDIPNENEAQFQIRDCPLNAEAASSKLQSSNIFTVAKRNVEGQDMLYQSLKLTNGIWVLAELRIQPGNPSCTDLELSLKCRAPEVSQHVYQAYETILKN	2.413
PRPSAP2 (protein, UniProt O60256 1-369, looked up) Phosphoribosyl pyrophosphate …: MFCVTPPELETKMNITKGGLVLFSANSNSSCMELSKKIAERLGVEMGKVQVYQEPNRETRVQIQESVRGKDVFIIQTVSKDVNTTIMELLIMVYACKTSCAKSIIGVIPYFPYSKQCKMRKRGSIVSKLLASMMCKAGLTHLITMDLHQKEIQGFFNIPVDNLRASPFLLQYIQEEIPDYRNAVIVAKSPASAKRAQSFAERLRLGIAVIHGEAQDAESDLVDGRHSPPMVRSVAAIHPSLEIPMLIPKEKPPITVVGDVGGRIAIIVDDIIDDVDSFLAAAETLKERGAYKIFVMATHGLLSSDAPRRIEESAIDEVVVTNTIPHEVQKLQCPKIKTVDISMILSEAIRRIHNGESMSYLFRNIGLDD	1.629
ZYX (protein, UniProt Q15942 2-572, looked up) Zyxin: AAPRPSPAISVSVSAPAFYAPQKKFGPVVAPKPKVNPFRPGDSEPPPAPGAQRAQMGRVGEIPPPPPEDFPLPPPPLAGDGDDAEGALGGAFPPPPPPIEESFPPAPLEEEIFPSPPPPPEEEGGPEAPIPPPPQPREKVSSIDLEIDSLSSLLDDMTKNDPFKARVSSGYVPPPVATPFSSKSSTKPAAGGTAPLPPWKSPSSSQPLPQVPAPAQSQTQFHVQPQPQPKPQVQLHVQSQTQPVSLANTQPRGPPASSPAPAPKFSPVTPKFTPVASKFSPGAPGGSGSQPNQKLGHPEALSAGTGSPQPPSFTYAQQREKPRVQEKQHPVPPPAQNQNQVRSPGAPGPLTLKEVEELEQLTQQLMQDMEHPQRQNVAVNELCGRCHQPLARAQPAVRALGQLFHIACFTCHQCAQQLQGQQFYSLEGAPYCEGCYTDTLEKCNTCGEPITDRMLRATGKAYHPHCFTCVVCARPLEGTSFIVDQANRPHCVPDYHKQYAPRCSVCSEPIMPEPGRDETVRVVALDKNFHMKCYKCEDCGKPLSIEADDNGCFPLDGHVLCRKCHTARAQT	2.225
